Experiments:
[1] = target: Dendrorhynchus zhejiangensis ferritin (DzFer) (Dendrorhynchus zhejiangensis); assay: crystal structure; Cu^2+-DzFer crystallised (0.2 M sodium citrate, 0.1 M Tris pH 8.5, 30% PEG 400); space group I432; 2.26 Å
[2] = target: Dendrorhynchus zhejiangensis ferritin (DzFer) (Dendrorhynchus zhejiangensis); assay: crystal structure; DzFer crystals (0.2 M ammonium sulfate, 0.1 M sodium acetate pH 4.6, 30% PEG MME 2000) soaked 1 min with 100 mM AgNO3; space group I432; 1.90 Å
[3] = target: Dendrorhynchus zhejiangensis ferritin (DzFer) (Dendrorhynchus zhejiangensis); assay: native gel or EMSA; Native-PAGE, 6% gel, 4 °C, Tris-glycine pH 8.3; purified tag-free DzFer, also after incubation and dialysis at pH 4, 6, 8, 10, 12, and as Ag^+-DzFer and Cu^2+-DzFer; subunits to 24-mer cage

stoichiometry N [1]: 24
stoichiometry N [2]: 24
stoichiometry N [3]: 24
Substance: Dendrorhynchus zhejiangensis ferritin (DzFer) (natural protein)
